For assay [1], the target named is T1, HIV-1 NL4-3 Vif N48H (residues 1-176) (HIV-1 (pNL4-3), UniProt P12504 1-176, N48H).
T1 construct: also called N48H Vif; N48H NL4-3 Vif
Description: cryo-EM structure. Conditions: both partners purified.

Assay [2] addresses T2, near-full-length human CUL5 (residues 12-780) (human, UniProt Q93034 12-780).
T2 construct: not shown: GB1, N-terminal, cleaved
T2 sequence: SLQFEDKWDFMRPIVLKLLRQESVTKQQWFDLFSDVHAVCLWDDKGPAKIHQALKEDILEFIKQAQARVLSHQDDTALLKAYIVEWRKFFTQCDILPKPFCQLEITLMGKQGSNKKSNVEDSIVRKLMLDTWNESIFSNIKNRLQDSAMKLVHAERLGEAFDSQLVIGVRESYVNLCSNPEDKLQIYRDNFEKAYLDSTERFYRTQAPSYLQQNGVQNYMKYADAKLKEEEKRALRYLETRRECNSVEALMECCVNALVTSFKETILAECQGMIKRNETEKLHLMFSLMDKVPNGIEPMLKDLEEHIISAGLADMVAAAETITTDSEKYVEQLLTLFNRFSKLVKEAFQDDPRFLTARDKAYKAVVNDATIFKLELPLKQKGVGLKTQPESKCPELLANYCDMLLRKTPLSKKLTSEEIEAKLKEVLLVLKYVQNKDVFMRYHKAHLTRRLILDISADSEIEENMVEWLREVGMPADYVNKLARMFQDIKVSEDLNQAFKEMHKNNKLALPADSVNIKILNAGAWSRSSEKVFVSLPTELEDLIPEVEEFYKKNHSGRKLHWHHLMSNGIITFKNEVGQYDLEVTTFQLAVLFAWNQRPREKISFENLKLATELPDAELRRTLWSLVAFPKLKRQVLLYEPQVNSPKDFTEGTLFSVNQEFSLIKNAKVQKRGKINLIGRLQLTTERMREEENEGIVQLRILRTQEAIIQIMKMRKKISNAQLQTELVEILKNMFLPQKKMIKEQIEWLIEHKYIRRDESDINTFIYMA
The assay is described as follows: cryo-EM structure. Conditions: both partners purified.

B1: human CBF-β (residues 1-156) (domain or fragment)
chain: MPRVVPDQRSKFENEEFFRKLSRECEIKYTGFRDRPHEERQARFQNACRDGRSEIAFVATGTNLSLQFFPASWQGEQRQTPSREYVDLEREAGKVYLKAPMILNGVCVIWKGWIDLQRLDGMGCLEFDEERAQQEDALAQQAFEEARRRTREFEDR
With B1, the binding result in assay [1] is recorded as “binds”.

B2: human RBX2 (residues 1-113) (natural protein)
chain: MADVEDGEETCALASHSGSSGSKSGGDKMFSLKKWNAVAMWSWDVECDTCAICRVQVMDACLRCQAENKQEDCVVVWGECNHSFHNCCMSLWVKQNNRCPLCQQDWVVQRIGK
notes: also called RING-box protein 2; source: E. coli BL21(DE3), co-expressed with GB1-CUL5 (pETDuet-1), purified as CUL5/RBX2 complex (Ni-NTA, SEC)
With B2, in assay [2], the binding result is “binds”.

(Values after PMC10462622 (Nature Communications, 2023).)
